Experimental data as given in paper doi:10.1101/2025.03.12.642038, “Structural, biophysical and biological analysis and characterisation of IRF4 DNA-binding domain mutations associated with multiple myeloma”.
Substitutions are numbered along the chain they refer to.

Key:
Assay in all cases: SPR two-state kinetic; FP: PBS + 0.05% Tween20, 5 nM DNA, 1 h, room temperature; SPR: Biacore S200, SA chip, protein 0.1-4500 nM, running buffer not given in material; errors are SD
IRF4 DBD D117A = target: T1, IRF4 DBD D117A (Homo sapiens, UniProt Q15306 20-132, D117A); details: protein: recombinant; tags: N-terminal His8-linker-His8-TEV, cleaved; label: 3' biotin; hairpin, TTTT loop
T1 sequence: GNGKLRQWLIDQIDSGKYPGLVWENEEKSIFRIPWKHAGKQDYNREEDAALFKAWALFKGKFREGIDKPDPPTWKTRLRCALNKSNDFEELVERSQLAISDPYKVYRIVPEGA

IRF4 DBD T95A = target: T2, IRF4 DBD T95A (Homo sapiens, UniProt Q15306 20-132, T95A); details: protein: recombinant; tags: N-terminal His8-linker-His8-TEV, cleaved; label: 3' biotin; hairpin, TTTT loop
T2 sequence: T1 sequence with T76A, A98D

IRF4 DBD C99R = target: T3, IRF4 DBD C99R (Homo sapiens, UniProt Q15306 20-132, C99R); details: protein: recombinant; tags: N-terminal His8-linker-His8-TEV, cleaved; label: 3' biotin; hairpin, TTTT loop
T3 sequence: T1 sequence with C80R, A98D

IRF4 DBD T95R = target: T4, IRF4 DBD T95R (Homo sapiens, UniProt Q15306 20-132, T95R); details: protein: recombinant; tags: N-terminal His8-linker-His8-TEV, cleaved; label: 3' biotin; hairpin, TTTT loop
T4 sequence: T1 sequence with T76R, A98D

IRF4 DBD S114N = target: T5, IRF4 DBD S114N (Homo sapiens, UniProt Q15306 20-132, S114N); details: protein: recombinant; tags: N-terminal His8-linker-His8-TEV, cleaved; label: 3' biotin; hairpin, TTTT loop
T5 sequence: T1 sequence with S95N, A98D

IRF4 DBD L70V = target: T6, IRF4 DBD L70V (Homo sapiens, UniProt Q15306 20-132, L70V); details: protein: recombinant; tags: N-terminal His8-linker-His8-TEV, cleaved; label: 3' biotin; hairpin, TTTT loop
T6 sequence: T1 sequence with L51V, A98D

IRF4 DBD S114R = target: T7, IRF4 DBD S114R (Homo sapiens, UniProt Q15306 20-132, S114R); details: protein: recombinant; tags: N-terminal His8-linker-His8-TEV, cleaved; label: 3' biotin; hairpin, TTTT loop
T7 sequence: T1 sequence with S95R, A98D

IRF4 DBD wild-type = target: T8, IRF4 DBD wild-type (Homo sapiens, UniProt Q15306 20-132); details: protein: recombinant; tags: N-terminal His8-linker-His8-TEV, cleaved; label: 3' biotin; hairpin, TTTT loop
T8 sequence: T1 sequence with A98D

IRF4 DBD C99S = target: T9, IRF4 DBD C99S (Homo sapiens, UniProt Q15306 20-132, C99S); details: protein: recombinant; label: 3' biotin; hairpin, TTTT loop
T9 sequence: T1 sequence with C80S, A98D

IRF4 DBD C99A = target: T10, IRF4 DBD C99A (Homo sapiens, UniProt Q15306 20-132, C99A); details: protein: recombinant; tags: N-terminal His8-linker-His8-TEV, cleaved; label: 3' biotin; hairpin, TTTT loop
T10 sequence: T1 sequence with C80A, A98D

## CTTGGTTTCACTTCCTGCGTTTTCGCAGGAAGTGAAACCAAG (structured_DNA) [IRE hairpin (biotin)]
IRF4 DBD D117A
  Kd: 293 ± 213 nM
IRF4 DBD T95A
  Kd: 305 ± 174 nM
IRF4 DBD C99R
  Kd: 660 ± 317 nM
IRF4 DBD T95R
  Kd: 481 ± 149 nM
IRF4 DBD S114N
  Kd: 145 ± 151 nM
IRF4 DBD L70V
  Kd: 121 ± 111 nM
IRF4 DBD S114R
  Kd: 49 ± 26 nM
IRF4 DBD wild-type
  Kd: 187 ± 143 nM
IRF4 DBD C99S
  Kd: 139 ± 43 nM
IRF4 DBD C99A
  Kd: 61 ± 29 nM
